{"source": "patent US12006519B2", "about": "“Polymerase mutants and use with 3′-OH unblocked reversible terminators” (Agilent Technologies, Inc., priority 2021, dated 2024)", "molecules": {"B1": {"name": "Pfu10: Pfu D141A/E143A/K477W/A486L/Y546H, SEQ ID NO:2 (protein)", "chain": "MILDVDYITEEGKPVIRLFKKENGKFKIEHDRTFRPYIYALLRDDSKIEEVKKITGERHGKIVRIVDVEKVEKKFLGKPITVWKLYLEHPQDVPTIREKVREHPAVVDIFEYDIPFAKRYLIDKGLIPMEGEEELKILAFAIATLYHEGEEFGKGPIIMISYADENEAKVITWKNIDLPYVEVVSSEREMIKRFLRIIREKDPDIIVTYNGDSFDFPYLAKRAEKLGIKLTIGRDGSEPKMQRIGDMTAVEVKGRIHFDLYHVITRTINLPTYTLEAVYEAIFGKPKEKVYADEIAKAWESGENLERVAKYSMEDAKATYELGKEFLPMEIQLSRLVGQPLWDVSRSSTGNLVEWFLLRKAYERNEVAPNKPSEEEYQRRLRESYTGGFVKEPEKGLWENIVYLDFRALYPSIIITHNVSPDTLNLEGCKNYDIAPQVGHKFCKDIPGFIPSLLGHLLEERQKIKTKMKETQDPIEWILLDYRQKLIKLLANSFYGYYGYAKARWYCKECAESVTAWGRKYIELVWKELEEKFGFKVLYIDTDGLHATIPGGESEEIKKKALEFVKYINSKLPGLLELEYEGFYKRGFFVTKKRYAVIDEEGKVITRGLEIVRRDWSEIAKETQARVLETILKHGDVEEAVRIVKEVIQKLANYEIPPEKLAIYEQITRPLHEYKAIGPHVAVAKKLAAKGVKIKPGMVIGYIVLRGDGPISNRAILAEEYDPKKHKYDAEYYIENQVLPAVLRILEGFGYRKEDLRYQKTRQVGLTSWLNIKKS", "modifications": "Mutant of Pyrococcus furiosus Polymerase"}}, "assay_type_in_all_cases": "biochemical", "key": {"dATP": {"system": "dATP", "assay": "Template-independent DNA synthesis assay with dATP (terminal transferase activity)", "procedure": "The template-independent DNA synthesis reactions employed 7.5 U TdT (Promega) or 180 nM (3×over primer) Pfu26 (D141A/E143A/A486L/Y546H/K477W/L409Y) or Pfu48 (D141A/E143A/A486R/Y546H/K477W/L409Y). Varying concentrations of dATP were added to 2 μM (TdT) or 60 nM (Pfu) T7 FOR primer (6′Fam […]) (SEQ ID NO:6) in duplicate reactions containing 1×TdT buffer with CoCl2(Promega) or 1×ThermoPol buffer (NEB). Reactions were incubated for 30 min. at 37° C. (TdT) or 60° C. (Pfu), and then inactivated with heat (TdT; 10 min. at 70° C.) or EDTA (1 ul 500 uM EDTA). Reaction products were exposed to UV using a Stratalinker (15-watt bulbs, […], 10 min). Reactions were diluted in water (TdT, 1:333; Pfu, 1:10) and 1 μl (TdT) or 0.5 μl (Pfu) aliquots were brought up to 10 μl with HiDI/LIZ 120 Size Standard. Products were heated at 95° C. for 5 min., cooled on ice for 2 min., and then analyzed on an ABI 3500 capillary electrophoresis system ([…] capillary, filter set #5, assay=GE5 LIZ120).\nTerminal transferase activity was measured by the number of template-independent dATP additions. Results are shown for TdT in FIG. 9A, for Pfu26 in FIG. 9B and for Pfu48 in FIG. 9C."}, "Lightning Terminators [1]": {"system": "Lightning Terminators", "assay": "Sequencing-by-synthesis with Lightning Terminators (87 cycles)", "parameters": "ARL (87 cycles) / Lead + Lag / Leading / Lagging: unit not given here", "summary_of_the_method": "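Mutant 9°N-family DNA polymerases (Therminator; JDF3 and Pfu carrying D141A/E143A/A485L) run in sequencing-by-synthesis on a breadboard instrument with 3′-OH unblocked Lightning Terminators, 87 cycles. Metrics include Lead+Lag dephasing, i.e. reading next- or previous-base signal from imperfect terminator incorporation.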"}, "Lightning Terminators [2]": {"system": "Lightning Terminators", "assay": "Plate-based assay, incorporation of Lightning Terminators by control extracts", "procedure": "(§1) In this example, additional mutant polymerases were derived from Pfu polymerase. To generate the mutants, eighty-seven codons in the Pfu pol B gene were saturated using the QuikChange Lightning Mutagenesis kit and oligonucleotides containing “NDT” codons to create R, N, D, C, G, H, I, L, F, S, Y, and V substitutions with equal frequency. In some cases, mutants missing from NDT libraries were prepared in a separate QuikChange reaction with an equimolar mixture of mutagenic oligos encoding the remaining mutations (A, T, K, Q, E, P, […], W). Thirty-two clones were randomly selected from each QuikChange library (with the exception of T267, Y403, Y410, I475, G499 and K675 libraries which generated fewer transformants). Bacterial lysates were prepared and screened for incorporation of LTA and LTC using a plate-based assay with immobilized primer-templates. A limited number of mutants were also screened for utilization of LTG and LTU (similar trends; data not shown). After washing and UV cleavage (to minimize dye quenching effects), plates were read and fluorescent signals compared to Pfu controls. The following table identifies four mutant Pfu polymerases that served as controls, which were given the arbitrary names Pfu5, Pfu1, and Pfu2, along with Pfu10 (which is discussed above).\nSelected lysates, based on screening results, were submitted for sequencing, and an amino acid identification was made based on the selections. […] As shown in Example 3, K477W benefits sequencing by increasing the fraction of full-length reads."}, "LTC": {"system": "LTC", "assay": "Plate-based assay with immobilized primer-templates, incorporation of LTC", "conditions": "FIG. 6", "procedure": "as §1"}, "E. coli DNA library": {"system": "E. coli DNA library", "assay": "Sequencing with Lightning Terminators, E. coli DNA library (120 cycles)", "procedure": "(§2) This section generally describes how the present mutant polymerases were used for sequencing-by-synthesis, and how their performance in sequencing was measured. Sequencing was performed on a breadboard instrument, essentially as described in Hertzog D, et al., “A high-performance, low-cost approach to next-generation sequencing”, BioOptics World. 2011 Issue November/December 2011.\n(§3) In this example, a variety of mutations were introduced into Pfu10 by multi-site mutagenesis or into Pfu A486L/Y546H by domain substitutions to explore an acceptable degree of reduced identity and identify other mutant Pfu polymerases containing L486, F494, H546, and W477. […] Pfu10 and Pfu10-N12 were evaluated for performance in sequencing with Lightning Terminators, as described above."}, "Human DNA library": {"system": "Human DNA library", "assay": "Sequencing with Lightning Terminators, Human DNA library (120 cycles)", "conditions": "Human DNA library", "procedure": "as §2, §3"}}, "data": [{"molecule": "B1", "values": [{"measurement": "Non-templated dA-addition (terminal transferase activity)", "setting": "dATP", "value": "fail to perform non-templated dA-addition"}, {"measurement": "Sequencing performance with Lightning Terminators (in words)", "setting": "Lightning Terminators [1]", "value": "improved sequencing enzyme"}, {"measurement": "% reads >85 bp", "setting": "Lightning Terminators [1]; Example 3", "value": 69.5, "unit": "%"}, {"measurement": "FracQ30", "setting": "Lightning Terminators [1]; Example 3", "value": 0.62}, {"measurement": "Lagging", "setting": "Lightning Terminators [1]; Example 3", "value": 0.66}, {"measurement": "Leading", "setting": "Lightning Terminators [1]; Example 3", "value": 0.24}, {"measurement": "ARL (87 cycles)", "setting": "Lightning Terminators [1]; Example 3, Therminator 110 runs, Pfu10 12 runs", "value": 80.4}, {"measurement": "Effect on LTA and LTU incorporation (in words)", "setting": "Lightning Terminators [2]; K477W, or final fluorescence due to tryptophan quenching", "value": "negative impact on LTA and LTU incorporation"}, {"measurement": "Utilization of Lightning Terminators (in words)", "setting": "Lightning Terminators [2]; control extracts, FIG. 6, FIGS. 7A-7B", "value": "could utilize Lightning Terminators"}, {"measurement": "Incorporation of LTC (in words)", "setting": "LTC", "value": "maximize incorporation of LTC"}, {"measurement": "% reads >85", "setting": "E. coli DNA library", "value": 79.9, "unit": "%"}, {"measurement": "ARL (120 cycles)", "setting": "E. coli DNA library", "value": 92.3}, {"measurement": "FracQ30", "setting": "E. coli DNA library", "value": 0.63}, {"measurement": "Lead + Lag", "setting": "E. coli DNA library", "value": 0.8}, {"measurement": "% reads >85", "setting": "Human DNA library", "value": 92.0, "unit": "%"}, {"measurement": "ARL (120 cycles)", "setting": "Human DNA library", "value": 109.7}, {"measurement": "FracQ30", "setting": "Human DNA library", "value": 0.65}, {"measurement": "Lead + Lag", "setting": "Human DNA library", "value": 1.1}]}]}
